Molecular target: human telomeric nucleosome core particle (teloNCP) (human, UniProt P68431 1-136; P62805 1-103; P04908 1-130; P06899 1-124)
Assay: EMSA, concentration at 50% bound

EC50: 37 nM
B1: wild-type MBP-tagged TRF1core (TRF1-TIN2-TPP1) (complex)
chain 1: MAEDVSSAAPSPRGCADGRDADPTEEQMAETERNDEEQFECQELLECQVQVGAPEEEEEEEEDAGLVAEAEAVAAGWMLDFLCLSLCRAFRDGRSEDFRRTRNSAEAIIHGLSSLTACQLRTIYICQFLTRIAAGKTLDAQFENDERITPLESALMIWGSIEKEHDKLHEEIQNLIKIQAIAVCMENGNFKEAEEVFERIFGDPNSHMPFKSKLLMIISQKDTFHSFFQHFSYNHMMEKIKSYVNYVLSEKSSTFLMKAAAKVVESKRTRTITSQDKPSGNDVEMETEANLDTRKSVSDKQSAVTESSEGTVSLLRSHKNLFLSKLQHGTQQQDLNKKERRVGTPQSTKKKKESRRATESRIPVSKSQPVTPEKHRARKRQAWLWEEDKNLRSGVRKYGEGNWSKILLHYKFNNRTSVMLKDRWRTMKKLKLISSDSED
chain 2: MATPLVAGPAALRFAAAASWQVVRGRCVEHFPRVLEFLRSLRAVAPGLVRYRHHERLCMGLKAKVVVELILQGRPWAQVLKALNHHFPESGPIVRDPKATKQDLRKILEAQETFYQQVKQLSEAPVDLASKLQELEQEYGEPFLAAMEKLLFEYLCQLEKALPTPQAQQLQDVLSWMQPGVSITSSLAWRQYGVDMGWLLPECSVTDSVNLAEPMEQNPPQQQRLALHNPLPKAKPGTHLPQGPSSRTHPEPLAGRHFNLAPLGRRRVQSQWASTRGGHKERPTVMLFPFRNLGSPTQVISKPESKEEHAIYTADLAMGTRAASTGKSKSPCQTLGGRALKENPVDLPATEQKENCLDCYMDPLRLSLLPPRARKPVCPPSLCSSVITIGDLVLDSDEEENGQGEGKESLENYQKTKFDTLIPTLCEYLPPSGHGAIPVSSCDCRDSSRPL
chain 3: MAGSGRLVLRPWIRELILGSETPSSPRAGQLLEVLQDAEAAVAGPSHAPDTSDVGATLLVSDGTHSVRCLVTREALDTSDWEEKEFGFRGTEGRLLLLQDCGVHVQVAEGGAPAEFYLQVDRFSLLPTEQPRLRVPGCNQDLDVQKKLYDCLEEHLSESTSSNAGLSLSQLLDEMREDQEHQGALVCLAESCLTLEGPCTAPPVTHWAASRCKATGEAVYTVPSSMLCISENDQLILSSLGPCQRTQGPELPPPDPALQDLSLTLIASPPSSPSSSGTPALPGHMSSEESGTSISLLPALSLAAPDPGQRSSSQPSPAICSAPATLTPRSPHASRTPSSPLQSCTPSLSPRSHVPSPHQALVTRPQKPSLEFKEFVGLPCKNRPPFPRTGATRGAQEPCSVWEPPKRHRDGSAFQYEYEPPCTSLCARVQAVRLPPQLMAWALHFLMDAQPGSEPTPM
modifications: phosphoserine at 434, 435 and 437 (reported for the purified TRF1core sample from Sf9)

Reference: article PMC10456876 (2023)
